# What was measured:
# Type in all cases: cell-based
# IGF-1R = biological target: T1, IGF-1R (Homo sapiens, UniProt P08069); assay: IGF-1R ubiquitination in ES cells (immunoprecipitation, WB); settings: 10 min stimulation, serum starved ES cells; all investigated cell lines
# T1 construct: all the ES cell lines tested expressed IGF-1R; endogenous in cells; host or cells: Ewing's sarcoma cell lines SKES, RDES, CADO, A673, SKNMC
# Description: (§1) FIG. 2A-FIG. 2D. Mechanism of CP induced IGF-1R downregulation: β-arrestin1 recruitment and receptor ubiquitination. (A) Cells incubated in serum free medium for 12 h were treated with 0, 0.1 or 1 μg/ml CP for 24 h. Protein lysates were analyzed by WB for IGF-1R and GAPDH as a loading control. […] Protein lysates were analyzed by WB for IGF-1R and GAPDH as a loading control. Signals were quantified by densitometry, normalized to GAPDH and expressed as a percentage of the IGF-1R at 0 h. Data correspond to the mean±SEM from three independent experiments. […] IGF-1R was immunoprecipitated from lysates and analyzed by WB (IB) for ubiquitination (Ub) and IGF-1R as a loading control. Molecular weight markers in KDa are indicated to the left of the panels. (D) β-Arrestin1 (β-arr1) was immunoprecipitated from cell lysates prepared as for (C). Immunoprecipitated proteins were analyzed by WB for IGF-1R. The whole lysates were analyzed by WB for GAPDH as a loading control.
# (§2) Cells were lysed with 500 μl lysis buffer (110 mM KOAc, 0.5% (v/v) Triton X-100, 100 mM NaCl, protease inhibitor cocktail tablet (Roche), buffering salts pH 7.4). 500 μg of protein was incubated with Dynabeads protein G (10 μl) (Invitrogen, CA, USA) and 1 μg antibody overnight at 4° C. on a rotator platform. […]
# (§3) These trends were confirmed by densitometric quantification of multiple experiments (FIG. 2B, graphs). […]
# [1] = biological target: T2, IGF-1R/β-arr1 association (Homo sapiens, UniProt P08069); assay: β-arrestin1 recruitment to IGF-1R in ES cell lines (immunoprecipitation, WB); settings: 10 min stimulation; all ES cell lines
# T2 construct: endogenous in cells; host or cells: Ewing's sarcoma cell lines
# Description: as §1, §2, §3
# BE = assay: PrestoBlue cell viability, anti-IGF-1R antibody with U0126, BE (melanoma); settings: 48 h
# Description: (§4) Cells were incubated in 96 well tissue culture plates and cell viability was measured by PrestoBlue cell viability assay (Invitrogen, CA, USA) according to manufacturer's instructions. Fluorescence was measured with excitation at 560 nm and emission at 590 nm. Cell number was calculated from standard curves of fluorescence measurements from known numbers of cells. Triplicate cultures were performed on all experiments.
# (§5) The effects of anti-IGF-1R antibodies/MEK inhibitor combination treatment on viability of different types of tumor cells were investigated using PrestoBlue cell viability assay (Invitrogen, CA, USA) according to manufacturer's instructions. (Table 3).
# (§6) Cells were incubated in serum free medium for 12 h followed by pretreatment for 60 min without or with 0.5, 1, 3 or 5 μM of the ERK inhibitor U0126, and then treated without or with 100 ng/ml anti-IGF-1R antibodies (Figitumumab or αIR-3 (Calbiochem, US). Cells were incubated in 96 well tissue culture plates for 48 hours and cell viability was measured by PrestoBlue cell viability assay. Fluorescence was measured with excitation at 560 nm and emission at 590 nm. Cell number was calculated from standard curves of fluorescence measurements from known numbers of cells. Triplicate cultures were performed on all experiments. The inhibition induced by anti-IGF-1R antibodies treated cells was calculated as percentage of untreated cells.
# HEPG2 = assay: PrestoBlue cell viability, anti-IGF-1R antibody with U0126, HEPG2 (hepatic carcinoma); settings: 48 h
# Description: as §4, §5, §6
# MCF7 = assay: PrestoBlue cell viability, anti-IGF-1R antibody with U0126, MCF7 (breast carcinoma); settings: 48 h
# Description: as §4, §5, §6
# H1703 = assay: PrestoBlue cell viability, anti-IGF-1R antibody with U0126, H1703 (lung cancer); settings: 48 h
# Description: as §4, §5, §6
# MIAPaCa2 = assay: PrestoBlue cell viability, anti-IGF-1R antibody with U0126, MIAPaCa2 (pancreatic cancer); settings: 48 h
# Description: as §4, §5, §6
# SKMel5 = assay: PrestoBlue cell viability, anti-IGF-1R antibody with U0126, SKMel5 (melanoma); settings: 48 h
# Description: as §4, §5, §6
# OMM 2.3 = assay: PrestoBlue cell viability, anti-IGF-1R antibody with U0126, OMM 2.3 (liver metastasis of uveal melanoma); settings: OMM 2.3 cells, 48 h
# Description: as §4, §5, §6
# PC-3 = assay: PrestoBlue cell viability, anti-IGF-1R antibody with U0126, PC-3 (prostate carcinoma); settings: PC-3 cells, 48 h
# Description: as §4, §5, §6
# DFB = assay: PrestoBlue cell viability, anti-IGF-1R antibody with U0126, DFB (melanoma); settings: 48 h
# Description: as §4, §5, §6
# OCM-1 = assay: PrestoBlue cell viability, anti-IGF-1R antibody with U0126, OCM-1 (uveal melanoma); settings: OCM-1 cells, 48 h
# Description: as §4, §5, §6
# DU-145 = assay: PrestoBlue cell viability, anti-IGF-1R antibody with U0126, DU-145 (prostate carcinoma); settings: DU-145 cells, 48 h
# Description: as §4, §5, §6
# [2] = U0126 0 μM (60 min pretreatment)
# [3] = U0126 0.5 μM (60 min pretreatment)
# [4] = U0126 1 μM (60 min pretreatment)
# [5] = U0126 3 μM (60 min pretreatment)
# [6] = U0126 5 μM (60 min pretreatment)
molecule,measurement,setting,value
"CP-751,871: anti-IGF-1R antibody figitumumab (Pfizer), IGF-1R antagonist (antibody, chains of the INN, looked up) heavy: EVQLLESGGGLVQPGGSLRLSCTASGFTFSSYAMNWVRQAPGKGLEWVSAISGSGGTTFYADSVKGRFTISRDNSRTTLYLQMNSLRAEDTAVYYCAKDLGWSDSYYYYYGMDVWGQGTTVTVSSASTKGPSVFPLAPCSRSTSESTAALGCLVKDYFPEPVTVSWNSGALTSGVHTFPAVLQSSGLYSLSSVVTVPSSNFGTQTYTCNVDHKPSNTKVDKTVERKCCVECPPCPAPPVAGPSVFLFPPKPKDTLMISRTPEVTCVVVDVSHEDPEVQFNWYVDGVEVHNAKTKPREEQFNSTFRVVSVLTVVHQDWLNGKEYKCKVSNKGLPAPIEKTISKTKGQPREPQVYTLPPSREEMTKNQVSLTCLVKGFYPSDIAVEWESNGQPENNYKTTPPMLDSDGSFFLYSKLTVDKSRWQQGNVFSCSVMHEALHNHYTQKSLSLSPG light: DIQMTQFPSSLSASVGDRVTITCRASQGIRNDLGWYQQKPGKAPKRLIYAASRLHRGVPSRFSGSGSGTEFTLTISSLQPEDFATYYCLQHNSYPCSFGQGTKLEIKRTVAAPSVFIFPPSDEQLKSGTASVVCLLNNFYPREAKVQWKVDNALQSGNSQESVTEQDSKDSTYSLSSTLTLSKADYEKHKVYACEVTHQGLSSPVTKSFNRGEC",IGF-1R ubiquitination compared with IGF-1,IGF-1R,more potent in generating receptor ubiquitination
same,β-arr1 recruitment to the receptor compared with IGF-1,[1],much more potent than IGF-1 in recruiting β-arr1
same,Percentage inhibition of antibody treated cells (100 ng/ml),BE; [2],22%
same,Percentage inhibition of antibody treated cells (100 ng/ml),BE; [3],27%
same,Percentage inhibition of antibody treated cells (100 ng/ml),BE; [4],32%
same,Percentage inhibition of antibody treated cells (100 ng/ml),BE; [5],45%
same,Percentage inhibition of antibody treated cells (100 ng/ml),BE; [6],55%
same,Percentage inhibition of antibody treated cells (100 ng/ml),HEPG2; [2],7%
same,Percentage inhibition of antibody treated cells (100 ng/ml),HEPG2; [3],11%
same,Percentage inhibition of antibody treated cells (100 ng/ml),HEPG2; [4],22%
same,Percentage inhibition of antibody treated cells (100 ng/ml),HEPG2; [5],27%
same,Percentage inhibition of antibody treated cells (100 ng/ml),HEPG2; [6],37%
same,Percentage inhibition of antibody treated cells (100 ng/ml),MCF7; [2],15%
same,Percentage inhibition of antibody treated cells (100 ng/ml),MCF7; [3],18%
same,Percentage inhibition of antibody treated cells (100 ng/ml),MCF7; [4],25%
same,Percentage inhibition of antibody treated cells (100 ng/ml),MCF7; [5],18%
same,Percentage inhibition of antibody treated cells (100 ng/ml),MCF7; [6],33%
same,Percentage inhibition of antibody treated cells (100 ng/ml),H1703; [2],10%
same,Percentage inhibition of antibody treated cells (100 ng/ml),H1703; [3],15%
same,Percentage inhibition of antibody treated cells (100 ng/ml),H1703; [4],25%
same,Percentage inhibition of antibody treated cells (100 ng/ml),H1703; [5],28%
same,Percentage inhibition of antibody treated cells (100 ng/ml),H1703; [6],32%
same,Percentage inhibition of antibody treated cells (100 ng/ml),MIAPaCa2; [2],27%
same,Percentage inhibition of antibody treated cells (100 ng/ml),MIAPaCa2; [3],35%
same,Percentage inhibition of antibody treated cells (100 ng/ml),MIAPaCa2; [4],55%
same,Percentage inhibition of antibody treated cells (100 ng/ml),MIAPaCa2; [5],78%
same,Percentage inhibition of antibody treated cells (100 ng/ml),MIAPaCa2; [6],89%
same,Percentage inhibition of antibody treated cells (100 ng/ml),SKMel5; [2],22%
same,Percentage inhibition of antibody treated cells (100 ng/ml),SKMel5; [3],30%
same,Percentage inhibition of antibody treated cells (100 ng/ml),SKMel5; [4],35%
same,Percentage inhibition of antibody treated cells (100 ng/ml),SKMel5; [5],39%
same,Percentage inhibition of antibody treated cells (100 ng/ml),SKMel5; [6],42%
same,Percentage inhibition of antibody treated cells (100 ng/ml),OMM 2.3; [2],12%
same,Percentage inhibition of antibody treated cells (100 ng/ml),OMM 2.3; [3],35%
same,Percentage inhibition of antibody treated cells (100 ng/ml),OMM 2.3; [4],45%
same,Percentage inhibition of antibody treated cells (100 ng/ml),OMM 2.3; [5],65%
same,Percentage inhibition of antibody treated cells (100 ng/ml),OMM 2.3; [6],97%
same,Percentage inhibition of antibody treated cells (100 ng/ml),PC-3; [2],22%
same,Percentage inhibition of antibody treated cells (100 ng/ml),PC-3; [3],24%
same,Percentage inhibition of antibody treated cells (100 ng/ml),PC-3; [4],32%
same,Percentage inhibition of antibody treated cells (100 ng/ml),PC-3; [5],45%
same,Percentage inhibition of antibody treated cells (100 ng/ml),PC-3; [6],52%
same,Percentage inhibition of antibody treated cells (100 ng/ml),DFB; [2],15%
same,Percentage inhibition of antibody treated cells (100 ng/ml),DFB; [3],17%
same,Percentage inhibition of antibody treated cells (100 ng/ml),DFB; [4],24%
same,Percentage inhibition of antibody treated cells (100 ng/ml),DFB; [5],45%
same,Percentage inhibition of antibody treated cells (100 ng/ml),DFB; [6],55%
same,Percentage inhibition of antibody treated cells (100 ng/ml),OCM-1; [2],22%
same,Percentage inhibition of antibody treated cells (100 ng/ml),OCM-1; [3],28%
same,Percentage inhibition of antibody treated cells (100 ng/ml),OCM-1; [4],35%
same,Percentage inhibition of antibody treated cells (100 ng/ml),OCM-1; [5],46%
same,Percentage inhibition of antibody treated cells (100 ng/ml),OCM-1; [6],55%
same,Percentage inhibition of antibody treated cells (100 ng/ml),DU-145; [2],18%
same,Percentage inhibition of antibody treated cells (100 ng/ml),DU-145; [3],22%
same,Percentage inhibition of antibody treated cells (100 ng/ml),DU-145; [4],34%
same,Percentage inhibition of antibody treated cells (100 ng/ml),DU-145; [5],54%
same,Percentage inhibition of antibody treated cells (100 ng/ml),DU-145; [6],77%

# Source: US20140335077A1, “Compositions and Methods for the Treatment of Cancer Using IGF-IR Antagonists and MAPK/ERK Inhibitors” (priority 2013, published 2014)
